Data on 50 sequences can be found in the supplement of paper PMC9112550, “Optimization of the antimicrobial peptide Bac7 by deep mutational scanning” (BMC Biology, 2022).

The data set has as its system Escherichia coli TOP10. The experiment in a line: shrunken log2 fold change of peptide-encoding DNA abundance (4.5 h post-induction vs induction); higher = less antimicrobial activity (less host growth inhibition). The following applies: time post-induction: 4.5 h; library: site-saturation at positions 5, 18, 19, 20.
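Also: peptides expressed intracellularly from a pBAD plasmid library in pooled LB shake-flask culture, induced with 0.3% L-arabinose, DNA abundance read by NGS, three biological replicates, DESeq2 with apeglm shrinkage.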

As for RRIRNRPPRLPRPRPRPLNCPRP, the “shrunken log2 fold change” value was -0.415.
As to RRIRQRPPRLPRPRPRPHPSPRP, the “shrunken log2 fold change” value is -0.462.
To RRIRRRPPRLPRPRPRPEHIPRP belongs -0.13.
Regarding RRIRMRPPRLPRPRPRPRRAPRP, the “shrunken log2 fold change” value was 1.55.
To RRIRKRPPRLPRPRPRPYEGPRP belongs -0.0017; to RRIRYRPPRLPRPRPRPEHYPRP, -0.126; to RRIRKRPPRLPRPRPRPDCTPRP, 1.22.
As for RRIRMRPPRLPRPRPRPCFFPRP, the “shrunken log2 fold change” value turned out to be 0.16.
Consider RRIRKRPPRLPRPRPRPPNYPRP, for which the “shrunken log2 fold change” value was -0.19.
For the sequence RRIRFRPPRLPRPRPRPKACPRP, the “shrunken log2 fold change” value is -0.174.
As for RRIRLRPPRLPRPRPRPWCLPRP, the “shrunken log2 fold change” value is -0.317.
For the sequence RRIRQRPPRLPRPRPRPKYNPRP, the “shrunken log2 fold change” value was -0.879.
Under RRIRDRPPRLPRPRPRPTRIPRP stands 0.0348; under RRIRDRPPRLPRPRPRPTPRPRP, 0.792.
For the sequence RRIRTRPPRLPRPRPRPDYPPRP, the “shrunken log2 fold change” value amounted to 0.0242.
To RRIRDRPPRLPRPRPRPGENPRP belongs -0.00211.
Consider RRIRWRPPRLPRPRPRPKYYPRP, for which the “shrunken log2 fold change” value is -0.84.
As for RRIRHRPPRLPRPRPRPIVCPRP, the “shrunken log2 fold change” value is -0.0297.
To RRIRDRPPRLPRPRPRPWGRPRP belongs 0.258; to RRIRKRPPRLPRPRPRPLHTPRP, -0.368.
On to RRIRWRPPRLPRPRPRPKTYPRP, for which the “shrunken log2 fold change” value was -0.421.
With RRIRKRPPRLPRPRPRPNCIPRP, the “shrunken log2 fold change” value was -0.0156.
To RRIRKRPPRLPRPRPRPEQIPRP belongs 0.0375; to RRIRLRPPRLPRPRPRPEWMPRP, -0.00172.
For RRIRERPPRLPRPRPRPSCYPRP, the “shrunken log2 fold change” value was -0.941.
To RRIRCRPPRLPRPRPRPGAWPRP belongs 0.462; to RRIRQRPPRLPRPRPRPVIRPRP, -0.406.
Consider RRIRNRPPRLPRPRPRPRCAPRP, for which the “shrunken log2 fold change” value stood at 0.708.
As to RRIRERPPRLPRPRPRPAAVPRP, the “shrunken log2 fold change” value was determined as 0.057.
Consider RRIRRRPPRLPRPRPRPFAPPRP, for which the “shrunken log2 fold change” value is 0.368.
Consider RRIRHRPPRLPRPRPRPMKNPRP, for which the “shrunken log2 fold change” value worked out at 0.0372.
To RRIRPRPPRLPRPRPRPPHAPRP belongs 0.589; to RRIRSRPPRLPRPRPRPWTGPRP, -0.105.
Under RRIRTRPPRLPRPRPRPEIHPRP stands -0.0341; under RRIRIRPPRLPRPRPRPVDSPRP, 0.0804; under RRIRLRPPRLPRPRPRPCYRPRP, -0.145.
With RRIRTRPPRLPRPRPRPCQFPRP, the “shrunken log2 fold change” value was -0.0244.
Under RRIRARPPRLPRPRPRPHWNPRP stands -0.0187.
For RRIRMRPPRLPRPRPRPVFPPRP, the “shrunken log2 fold change” value is 0.0941.
In the case of RRIRARPPRLPRPRPRPNHVPRP, the “shrunken log2 fold change” value is -0.31.
Take RRIRLRPPRLPRPRPRPERSPRP: the “shrunken log2 fold change” value was found to be 0.293.
For RRIRPRPPRLPRPRPRPFKQPRP, the “shrunken log2 fold change” value is -0.258.
For the sequence RRIRKRPPRLPRPRPRPTIPPRP, the “shrunken log2 fold change” value turned out to be 0.263.
For RRIRWRPPRLPRPRPRPWDRPRP, the “shrunken log2 fold change” value was 0.215.
On to RRIRTRPPRLPRPRPRPRFMPRP, for which the “shrunken log2 fold change” value was -0.265.
To RRIRIRPPRLPRPRPRPSQHPRP belongs -0.71.
Regarding RRIRLRPPRLPRPRPRPVRIPRP, the “shrunken log2 fold change” value is 0.115.
Take RRIRIRPPRLPRPRPRPCLSPRP: the “shrunken log2 fold change” value is -0.0164.
Under RRIRKRPPRLPRPRPRPIRMPRP stands -0.0295.
Turning to RRIRMRPPRLPRPRPRPWFWPRP, the “shrunken log2 fold change” value was 0.221.
